Source: patent US20220153792A1 (INSTITUTE FOR RESEARCH IN BIOMEDICINE, published 2022)
One block for each binder: values may come before it.

Molecular target: T1, histidine tagged HMGB1 (High-Mobility-Group-Protein 1) (Homo sapiens (Human), UniProt P09429 1-215, limits assumed, labeled with the his-tag specific NT-647 dye)
T1 construct: also called high-mobility protein box 1; not shown: histidine tag
T1 sequence: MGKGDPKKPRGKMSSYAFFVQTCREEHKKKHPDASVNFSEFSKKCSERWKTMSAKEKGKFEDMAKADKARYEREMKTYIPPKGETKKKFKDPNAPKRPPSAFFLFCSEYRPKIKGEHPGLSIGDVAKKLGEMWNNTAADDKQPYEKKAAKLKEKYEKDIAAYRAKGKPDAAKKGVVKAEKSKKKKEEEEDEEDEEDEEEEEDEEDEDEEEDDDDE
Experiment: MST, NT-647-labelled His-tagged HMGB1, peptide titrated

Kd: 200 µM
B1: Pentapept-2 (peptide)
peptide: ERWIH
notes: Last five residues of HBP08 (ERWIH)

B2: Pentapept-1 (peptide)
peptide: GYHYE
notes: First five residues of HBP08 (GYHYE)
binding result: no binding (tested: highest peptide concentration 500 µM)
